Measured values: IntAct's records for PubMed 26829474

B1: Aurora kinase B (Homo sapiens), Q96GD4 (parent)
chain: MAQKENSYPWPYGRQTAPSGLSTLPQRVLRKEPVTPSALVLMSRSNVQPTAAPGQKVMENSSGTPDILTRHFTIDDFEIGRPLGKGKFGNVYLAREKKSHFIVALKVLFKSQIEKEGVEHQLRREIEIQAHLHHPNILRLYNYFYDRRRIYLILEYAPRGELYKELQKSCTFDEQRTATIMEELADALMYCHGKKVIHRDIKPENLLLGLKGELKIADFGWSVHAPSLRRKTMCGTLDYLPPEMIEGRMHNEKVDLWCIGVLCYELLVGNPPFESASHNETYRRIVKVDLKFPASVPMGAQDLISKLLRHNPSERLPLAQVSAHPWVRANSRRVLPPSALQSVA

Variants of: B1
Details: with 2aaa_human PPP2R1A
With K215Q the “effect of a mutation on the interaction” value was “decreasing interaction strength”.
